Molecular target: H3 hemagglutinin of influenza A/Hong Kong/68 (influenza A virus H3 A/Hong Kong/68)
Assay: cell-based or functional assay

| Binder | Minimum inhibitory concentrations required to neutralize virus [µg/mL] |
| --- | --- |
| Antibody 4 (antibody, V domains shown) VH: QVQLQESGPGLVKPSETLSLTCTVSGYSFDSGYYWGWLRQPPGKGLEWIGSIYHSRNTYYNPSLKSRVTISVDTSKNQFSLQLSSVTAADTAVYYCARGTWYSSNLRYWFDPWGKGTL VL: NFMLTQPHSVSESPGKTVTISCTGSGGNIARNYVQWYQQRPGSAPVTVILEDDKRPSGIPDRFSGSIDRSSNSASLTISGLRTEDEALYYCQSYDDSDLVVFGGGTKLT | > 333 |
| Antibody 1 (antibody, V domains shown) VH: QVQLVQSGAEVKKPGSSVRVSCKTSGGTFSSYAVTWVRQAPGQGLEWMGGIIGMFGTTNYAQKFQGRLTITADEMTSTAYMELSSLRSEDTAVYYCARGSYYYETTLDYWGRGTL VL: ETTLTQSPGTLSLSPGERATLSCRVSQSVSSNYLAWYQQKPGQAPRLLIYGASSRATGIPDRFSGSGSGTDFTLTISRLEPEDFAVYYCQQYGTSPRAFGHGTKVEIKR | > 333 |
| Antibody 2 (antibody, V domains shown) VH: QVQLVQSGAEVKKPGSSVKVSCKTSGGTFSSYAVTWVRQAPGQGLEWMGGIIGMFGTTNYAQKFQGRVTITADELTSTAYMELSSLRSEDTAVYYCARGSYYYESSLDYWGRGTL VL: ETTLTQSPATLSVSPGERATLSCRASQSVSRNLAWYQQKPGQAPRLLIYGASSRATGIPDRFSGSGSGTDFTLTISRLEPEDFAVYYCQQYGSSSITFGQGTRLEIKR | > 333 |
| Antibody 3 (antibody, V domains shown) V domain 1: EVQLVQSGAEVKKPGSSVKVSCKTSGGTFSSYAVTWVRQAPGQGLEWMGAIIGMFGTTNYAQKFQGRVTITADELTSTAYMELSSLRSDDTAVYYCARGSYYYESSLDYWGKGTL V domain 2: QSVLTQPPSVSGAPGQRVTISCGGSRSNIGAGYDVHWYQQFPGTAPKVVIYGNNNRPSGVPDRFSGSKSGTSASLAITGLQAEDEANYYCQSYDTNLGGSIFGGGTQVTVL | > 333 |

Source: US20100040635A1 (SEA LANE BIOTECHNOLOGIES, published 2010)
